Target: human PD-L1 (hPD-L1), full length, expressed on cells (human) (UniProt Q9NZQ7)
Experiment: flow cytometry, AlexaFluor647-labelled antibody (5 ug/mL per p-1191) on monocyte-derived dendritic cells

Sequence of human PD-L1 (hPD-L1), full length, expressed on cells (human) (Q9NZQ7 19-290 limits assumed): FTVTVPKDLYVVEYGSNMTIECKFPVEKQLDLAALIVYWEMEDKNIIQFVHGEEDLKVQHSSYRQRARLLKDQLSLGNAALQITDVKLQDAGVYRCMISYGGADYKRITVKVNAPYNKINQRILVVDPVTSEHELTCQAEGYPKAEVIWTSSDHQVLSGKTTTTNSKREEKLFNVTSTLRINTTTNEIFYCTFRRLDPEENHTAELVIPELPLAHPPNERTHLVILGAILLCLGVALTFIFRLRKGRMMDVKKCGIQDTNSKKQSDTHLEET

Question: Which Geometric Mean : R1-A does the source give for Isotype hu IgG1 (D107) (antibody) here?
Answer: 379

Source: patent US20240360218A1
